Substrate: C[N+](C)(C)[C@@H](Cc1cnc[nH]1)C(=O)[O-]
Test: purified protein
Assay type: biochemical, Chlorobium limicola
Conditions: 0.116 mM K2Sx, 50 mM KPi pH 8.0, 25 °C

B1: EanB (Chlorobium limicola DSM 245) (protein)
chain: MQNKNFRAPQSEAIGILYKLIETGSKHKNMYDHTEITTDSLLALLGSEKVKIIDVRSADAYNGWRMRGEVRGGHIKGAKSLPAKWLTDPEWLNIVRFKQIRPEDAIVLYGYTPEECEQTATRFKENGYNNVSVFHRFHPDWTGNDAFPMDRLEQYNRLVPAEWVNGLISGEEIPEYDNDTFIVCHAHYRNRDAYLSGHIPGATDMDTLALESPETWNRRTPEELKKALEEHGITASTTVVLYGKFMHPDNADEFPGSAAGHIGAIRLAFIMMYAGVEDVRVLNGGYQSWTDAGFAISKDDVPKTTVPEFGAPIPSRPEFAVDIDEAKEMLQSEDSDLVCVRSYPEYIGEVSGYNYIKKKGRIPGAIFAECGSDAYHMENYRNHDHTTREYHEIEDIWAKSGIIPKKHLAFYCGTGWRGSEAWFNALLMGWPRVSVYDGGWFEWSNDPENPYETGVPK
Q: Which results are given for B1?
A: Km: 69.7 ± 8.7 µM; kcat: 0.0113 ± 0.00017 s⁻¹

B2: EanB (Chlorobium limicola DSM 245; C116A/C184A/C339A/C370A) (protein)
chain: MQNKNFRAPQSEAIGILYKLIETGSKHKNMYDHTEITTDSLLALLGSEKVKIIDVRSADAYNGWRMRGEVRGGHIKGAKSLPAKWLTDPEWLNIVRFKQIRPEDAIVLYGYTPEEAEQTATRFKENGYNNVSVFHRFHPDWTGNDAFPMDRLEQYNRLVPAEWVNGLISGEEIPEYDNDTFIVAHAHYRNRDAYLSGHIPGATDMDTLALESPETWNRRTPEELKKALEEHGITASTTVVLYGKFMHPDNADEFPGSAAGHIGAIRLAFIMMYAGVEDVRVLNGGYQSWTDAGFAISKDDVPKTTVPEFGAPIPSRPEFAVDIDEAKEMLQSEDSDLVAVRSYPEYIGEVSGYNYIKKKGRIPGAIFAEAGSDAYHMENYRNHDHTTREYHEIEDIWAKSGIIPKKHLAFYCGTGWRGSEAWFNALLMGWPRVSVYDGGWFEWSNDPENPYETGVPK
Q: With B2 as the protein, how does the Km (EanB C412-only variant) read?
A: 65.9 ± 3.4 µM

Q: What about the kcat (EanB C412-only variant) of the same protein?
A: 0.0025 ± 0.00017 s⁻¹

Reference: paper PMC8302205
